Measurements as given in the DeepSol protein solubility set.

Experiment: soluble on expression in E. coli; label from the status in PepcDB or PDB records

Sequence	soluble on expression in E. coli
MKRLSFLTLRPRHLSFLTLQRRNALRDALRHRSAPRRAFRIGRRASRTACDAERRTIVRLSFRALQPRRLSLLTLQRRNALRDALRHRSAPRRVFRIGRRASRTACDAQRCTIVRLSFRALQPRRLSFLTLQRRSALRDALHHKSAPRCTFKIGRGASRTACDAERRTIVRLSFRALQPRRLSFLTLQRRNALGDALRHKSAPRCTFKIGREASRTACDAERRTIVRLSFRALQPRRLSFLTLQRRNALRDALRHKSAPRRAFRIGRRASRTACDAERRTIVSQISLNALEHHHHHH	not soluble
MKRQLILEDGSFFVGEAFGSLKETTGEVVFNTGMTGYQEILTDPSYCGQIVTMTYPLIGNYGINRDDFEAIRPHVHGFIVKEACVKPSNWRGELTLDEYLKEKDIPGLAGIDTRKLTRLIRQYGTLKGMICGLDVDPVEAAAKLRAMEWPRDQVRRVSTKSAYPSPGRGERIVLIDFGMKHGILRELNKRNCDVIVLPYNATAEEVLGWHPDGVMLSNGPGDPKDVPEAIEMIRGILGKVPLFGICLGHQLFALACGANTEKMKFGHRGSNHPVKDLRTGKVAITSQNHGYTVTHESLSGTRLEVTHIALNDGTVEGLRHLDVPAFTVQYHPEASPGPEDANPLFDEFLALIREFNKKGEVIHA	soluble
MKRYRTLLFDVDDTILDFQAAEALALRLLFEDQNIPLTNDMKAQYKTINQGLWRAFEEGKMTRDEVVNTRFSALLKEYGYEADGALLEQKYRRFLEEGHQLIDGAFDLISNLQQQFDLYIVTNGVSHTQYKRLRDSGLFPFFKDIFVSEDTGFQKPMKEYFNYVFERIPQFSAEHTLIIGDSLTADIKGGQLAGLDTCWMNPDMKPNVPEIIPTYEIRKLEELYHILN	not soluble
MKSAWMEKTYTIDGCAFHTQHRKGSSGVTIVFEAGYGTSSETWKPLMADIDDEFGIFTYDRAGIGKSGQSRAKRTADQQVKELESLLKAADVKPPYLAVSHSYGAVITGLWACKNKHDIIGMVLLDPALGDCASFTFIPEEMHKSHTRKMMLEGTHAEFSKSLQELKKRQVHLGNMPLLVLSSGERTEKFAAEQEWQNLHSSILSLSNQSGWIQAKNSSHNIHHDEPHIVHLAIYDVWCAACQQAAPLYQAVN	not soluble
MKSEPDTFSIDDLERVGTEPWNGVRNYQARNFMRDGMHVGDGVFFYHSNCKVPGIVGIAKVASAAYPDDTQFDPSSDYHDPKSTREDPRWMLVDVAFERKLTRTISLDEIKQQADALGEGFPLIARGNRLSILPVTAAQWKVLLAMELEHHHHHH	not soluble
MKSIHYTKAVSGTERMTFGSNDEWERIVEEMLEFEKICIPFHSTSHSPDILFKLHGRTNEKNLMIVGIACKGRWSRNGIRWNEILEEAHKFLKPVHDQVLTSHPTWHCMLIIMSTQLATNVSEDLNHSSRCYSFGDSVGDFVIPHNCELVILSEADVENFIGKDILSNLRNAFKAVDNPHSRNIGISTLQKIVLLLSKNI	not soluble
MKSIIIAAPHSGSGKTTITVGIMECFRRRGLTVAPFKVGPDFIDPGYHRLVTGLPSANLDGWICPPEFVRASFAHHALNADMAIIEGVMGLFDGFGGIADEGSTAQVARLTGAPVILVVDARGLARSAAAILKGFAEFDPSVRVAGVIFNNVGSDSHERILREAVGQSLPELKVFGCIPRDDGLHIPARHLGLLTAEEHPLSGEFLDHLVEVIRDRVDLGLLWGAANPLGAPVPRAEPIPCQTLGGSVRLAVARDEAFCFVYEDNLCLLRRAGAEIVTFSPLRDERLPEDVAGVYLPGGYPEVFADALAANTGMKESLARAVNEGMPVYAECGGFIYLTRGVTDSAGEPESLHEFVGIFPVTTRMLPRRKALGYREVELAADTIIGPAGTLARGHEFHYSEMEEMPADVERAYRVRRGPVDLGMEGYRYRNCLASYVHLHFGSNPELAAAFVARCRSFVTRSRVLEHHHHHH	not soluble
MKSNEHDDCQVTNPSTGHLFDLSSLSGRAGFTAAYSEKGLVYMSICGENENCPPGVGACFGQTRISVGKANKRLRYVDQVLQLVYKDGSPCPSKSGLSYKSVISFVCRPEAGPTNRPMLISLDKQTCTLFFSWHTPLACEQATECSVRNGSSIVDLSPLIHRTGGYEAYDESEDDASDTNPDFYINICQPLNPMHAVPCPAGAAVCKVPIDGPPIDIGRVAGPPILNPIANEIYLNFESSTPCLADKHFNYTSLIAFHCKRGVSMGTPKLLRTSECDFVFEWETPVVCPDEVRMDGCTLTDEQLLYSFNLSSLSTSTFKVTRDSRTYSVGVCTFAVGPEQGGCKDGGVCLLSGTKGASFGRLQSMKLDYRHQDEAVVLSYVNGDRCPPETDDGVPCVFPFIFNGKSYEECIIESRAKLWCSTTADYDRDHEWGFCRHSNSYRTSSIIFKCDEDEDIGRPQVFSEVRGCDVTFEWKTKVVCPPKKLKHHHHHH	soluble
MKSRLPFRYLEPTFCAGLLDDPVLLVNVRPLGRSILVDCGQIHHLAKRVLKSIDAVFVSHAHMDHFMGLDTLVRHIHVSPRTVELFGPPGIARKVAAKLAGYDWNLTESYWCTFRVSEVHPERIVRFTFPGSEGFPCLPEEETTREGTEIFRNDFLAVDADLCDHNTLPTLVFRITERPTFWIDEAKVDQEGLVPGEWLRELKHRFYRGRLDGKTITVPVRTAGDTVAQRIREGRELFEAIRRSQEPASIGYLTDIGAGDTNLATVRRLLAGVTLLACECSFLAADVAKARTSHHLCTADVSALAREIRPGWLLPMHLSKSYNTKGHLLYRELTLAPETRLIRLPEHLTPRPLLPGEFPGLWKIAEMAGDPNSLEHHHHHH	not soluble
MKSSTMTSDYYKQTQIDQTLRLREVLKTLPPFAKDYFRAMEPKSSAKTRINYAYDIRVFFHFLLENNPIYKNYTMDQFRVQDLERIEPVDIEEYMEYLKVYKREDNEMITNGERGLKRKMSALRSFYSYYFKHQYIATNPTLLEHHHHHH	not soluble
MKSVIIVGAGIGGLCLAQGLAKAGIEFEVWEADAGPQVRGQGYRLRIDAMGQRALRQCLPPDLFELFRASCAVSGPARFVDPQLNPLPGRRPENWRENADAGEAGGDLSADRQVLRDILSHGLAPQIRWGRRARGFERGGDGIVVHCADGSEHGAALVVAADGLHSPLRRQWLPQAEPEAIGALNLYGKTPLDGIDPALLAGPTIVFADGWTLVVEPMRFRAAMSGLAARHAPDCRLSPTDDYVYWAMFGREACLGGSLSGEEDAAGWRRRIEAASGGLHPGLSDLLRRTAPEAVMGRAVRMAAGVPSWPPGRLTVLGDAIHAMSPAGGVGANTALADAAMLAVCLADGDVDRAVARYEADMRGRAERALVATRAGTERLLRRLLEHHHHHH	soluble
MKSVKEIRKSQVNSMISDQYEIFHVKDMVSPEKTIYHYHDFYEVHCTLKGVATFFLDGHQFDVEAGTVLLIHYHDLHRIIKQSTDDFERMYIFLTPDFLQQRSSKRTNLSACFQHFGQRRSKVIKVDVAKLANYLTPLDHSPLPEEYGADVRYEQQLLDFLIYLNQLVLKEENESQPKQMIENER	not soluble
MKSYPDPYRHFENLDSAETQNFAAEANAETRARFLENDKARALSDGILAQLQDTRQIPFCQEHRARMYHFHQDAEYPKGVYRVCTAATYRSGYPEWKILFSVADFDELLGDDVYLGGVSHLVEQPNRALLTLSKLGSDTAYTLEVDLEAGELVEGGFHFPAGKNHVSWRDENSVWVCPAWNERQLTQSGYPREVWLVERGKSFEESLPVYQIGEDGMMVNAWRYLDPQGSPIDLIEASDGFYTKTYLRVSAEGEAKPLNLPNDCDVVGYLAGHLLLTLRKDWN	not soluble
MKTEEMKFINESEFKKLKHYFEQKNTTSSLVLLVALTTGGRFSEIAKLKREDLDIKNNKIHLRGTKTETSDRIISIDTVTMKRIQSFIDSRPTNISGYIFTVDGKTITNAAVNKVLRKACANLNIKEITIHSLRHSFCSILIHHGFSILYISKHLGHSNPATTQSIYSHLLEHHHHHH	soluble
MKTENFRSYNQRVYSETLNDGLKITLIPKKDFHSVFAALFVNAGATDQQIVDEKGETIIFPSGTAHFAEHKMFEKKNGDVSEIFSAYGAFSNAYTSQSQTVYYFQGTENIDQSIKLLLQFVQEPYYTEASVAKEQGIIGQEISMYQDMPDWVSSFGLMKNLYRKQPLGEDIAGNIDSIETINADLLYKFHRYFYQPSNLQLKIAGNIDPTGLLALLKQTQARLTRPRINFSRVNRFNAKIPVKKSAEQNMPVALPLLAAGIKGSGNLPDIDTAIDLSFSSDLILDIYFSDSSDWYLRNYNQGFLNDDFSAQADVGRNYNFITFTGHSENKELFKEIYSQLKNISYSQELEKEFQWQKKASLGELSMSLDQLENNVFTIADVFNTDVNIFRVIEKLRELTYRKAVNLFESYYNLDSFSSFCVNPVE	not soluble
MKTETPSVKIVAITADEAGQRIDNFLRTQLKGVPKSMIYRILRKGEVRVNKKRIKPEYKLEAGDEVRIPPVRVAEREEEAVSPHLQKVAALADVILYEDDHILVLNKPSGTAVHGGSGLSFGVIEGLRALRPEARFLELVHRLDRDTSGVLLVAKKRSALRSLHEQLREKGMQKDYLALVRGQWQSHVKSVQAPLLKNILQSGERIVRVSQEGKPSETRFKVEERYAFATLVRCSPVTGRTHQIRVHTQYAGHPIAFDDRYGDREFDRQLTEAGTGLNRLFLHAAALKFTHPGTGEVMRIEAPMDEGLKRCLQKLRNAR	soluble
MKTFKLVGLSVIDDDMHRQDIPFIDGLIINKEDGQNRWLVEAYLDDDYEPMFVSLQRRPEFQLQVTITHTSNDPANMLVTVRSITKMNGHISVLMEGLMIPRRTHLAEVVLAGLVKKGLQGEALLQEFRQQMHERIDAKAPQERKR	not soluble
MKTIVVLGAGYAGLKTVVALQKKLRKEVRIILIDRNPYHYETMRLYEVASGSAPYTRMSYELADVLDKNMNELVVDQVEKIDLKNKTVELTKHKPISYDYCVVGLGFVLSSMGIAGAQENALPMSNVKQAQAIRDHIESEMRAYVKDHDSQHLSIVICGAGFQAIELAGALAQARPCFAQTAGTDPEKITIKMIDGSPRLLPMFQGKLLDYAINLSALEHHHHHH	not soluble
MKTKIINLVVVTGMSGAGKTVAIQSFEDIGYFTIDNIPPSLVPKVIELLKHSEETDKIALVVDMRSRVFFDEINDILDQLESNEELNFKILFLDATDGELVSRYKETRRSHPLAADGRVLDGIKLERELLSPLKSLSQNVVDTTKLTPRQLRKAISEQFSSKQDQSSFRIEVLSFGFKYGLPLDADLVFDVRFLPNPYYDPTLRNLTGLDKEVYDFVMTHKESEDFYKNLNHLIKPILPGYQKEGKSVLTIAVGCTGGQHRSVAFAHRLAQDLKNDWTVNETHRDKDRRKETVNRS	not soluble
MKTLQDSIIFRHGAKIKGRIVQPPMLTNSGNDGYVTQDALDYYAARSQSAGMIIVEYTTVSENGGPSRSWARDREQLTIYDDKFKPGMAKLATVIKKMGIKLYYNWSIPVEKLIISLNWVSRFMHQVR	not soluble
MKTVKHLLQEKGHTVVAIGPDDSVFNAMQKMAADNIGALLVMKDEKLVGILTERDFSRKSYLLDKPVKDTQVKEIMTRQVAYVDLNNTNEDCMALITEMRVRHLPVLDDGKVIGLLSIGDLVKDAISQHQFVINQLERYIYDTREI	soluble
